Data as given in publication PMC3167620.
Where two headings read alike, the source gives them in different places.

Key:
[1] = target: T1, G4R1/RHAU (G4 Resolvase 1) (human, UniProt Q9H2U1 1-1008); experiment: EMSA
T1 sequence: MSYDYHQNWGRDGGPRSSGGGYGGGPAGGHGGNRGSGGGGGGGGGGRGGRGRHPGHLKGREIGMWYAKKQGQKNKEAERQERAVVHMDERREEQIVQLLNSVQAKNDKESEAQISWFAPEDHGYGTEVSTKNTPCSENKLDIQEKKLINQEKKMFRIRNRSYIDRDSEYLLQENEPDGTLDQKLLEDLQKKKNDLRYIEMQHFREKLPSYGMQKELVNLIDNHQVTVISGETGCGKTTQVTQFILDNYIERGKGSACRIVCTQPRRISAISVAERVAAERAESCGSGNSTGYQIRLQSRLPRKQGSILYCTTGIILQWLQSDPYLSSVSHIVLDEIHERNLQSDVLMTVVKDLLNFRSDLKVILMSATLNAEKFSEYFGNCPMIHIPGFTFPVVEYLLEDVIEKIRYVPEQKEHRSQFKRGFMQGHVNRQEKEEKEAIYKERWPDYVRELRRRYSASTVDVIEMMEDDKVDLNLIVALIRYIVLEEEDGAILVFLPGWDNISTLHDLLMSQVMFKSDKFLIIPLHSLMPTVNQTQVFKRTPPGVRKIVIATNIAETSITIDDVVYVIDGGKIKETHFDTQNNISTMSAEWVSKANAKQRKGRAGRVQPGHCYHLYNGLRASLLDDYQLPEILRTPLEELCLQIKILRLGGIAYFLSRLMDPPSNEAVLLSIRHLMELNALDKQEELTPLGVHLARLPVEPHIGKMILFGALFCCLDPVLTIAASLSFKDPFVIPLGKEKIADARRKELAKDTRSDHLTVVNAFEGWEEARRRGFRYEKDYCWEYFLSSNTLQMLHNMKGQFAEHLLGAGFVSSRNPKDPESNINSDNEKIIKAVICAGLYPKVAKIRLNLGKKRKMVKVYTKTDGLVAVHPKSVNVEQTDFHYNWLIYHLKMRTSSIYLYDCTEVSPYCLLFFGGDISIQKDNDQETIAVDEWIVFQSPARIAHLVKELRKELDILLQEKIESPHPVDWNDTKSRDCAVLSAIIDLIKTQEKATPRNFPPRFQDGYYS

[2] = target: T2, G4R1/RHAU E335A (Walker B, ATPase-dead) (human, UniProt Q9H2U1 1-1008, E335A); experiment: EMSA
T2 sequence: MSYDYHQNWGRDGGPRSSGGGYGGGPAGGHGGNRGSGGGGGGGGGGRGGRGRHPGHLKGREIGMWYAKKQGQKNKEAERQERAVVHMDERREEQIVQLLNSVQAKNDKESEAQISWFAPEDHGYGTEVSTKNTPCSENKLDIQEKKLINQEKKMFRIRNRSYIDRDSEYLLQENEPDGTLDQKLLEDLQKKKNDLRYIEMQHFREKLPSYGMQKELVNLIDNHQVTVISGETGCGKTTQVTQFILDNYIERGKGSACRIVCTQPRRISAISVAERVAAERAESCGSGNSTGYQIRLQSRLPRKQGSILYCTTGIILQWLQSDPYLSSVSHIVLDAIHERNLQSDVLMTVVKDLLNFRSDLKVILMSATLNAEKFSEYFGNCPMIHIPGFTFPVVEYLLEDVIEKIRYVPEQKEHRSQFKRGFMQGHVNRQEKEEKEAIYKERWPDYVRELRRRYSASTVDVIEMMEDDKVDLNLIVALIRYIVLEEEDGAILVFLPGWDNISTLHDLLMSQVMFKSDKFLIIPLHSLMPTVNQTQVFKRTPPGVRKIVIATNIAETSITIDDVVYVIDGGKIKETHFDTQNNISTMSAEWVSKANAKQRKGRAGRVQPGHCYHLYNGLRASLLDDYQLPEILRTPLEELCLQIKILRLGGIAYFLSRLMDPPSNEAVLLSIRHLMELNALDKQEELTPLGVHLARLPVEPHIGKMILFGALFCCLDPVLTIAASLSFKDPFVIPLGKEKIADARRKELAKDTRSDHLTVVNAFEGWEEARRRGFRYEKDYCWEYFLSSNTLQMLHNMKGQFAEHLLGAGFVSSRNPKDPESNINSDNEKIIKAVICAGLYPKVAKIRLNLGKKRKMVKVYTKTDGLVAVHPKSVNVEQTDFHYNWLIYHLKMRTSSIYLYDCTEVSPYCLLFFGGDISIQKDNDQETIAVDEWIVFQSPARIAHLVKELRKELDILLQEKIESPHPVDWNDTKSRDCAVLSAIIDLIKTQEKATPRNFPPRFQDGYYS

[3] = target: T1, G4R1/RHAU (G4 Resolvase 1); experiment: EMSA; remark: listed apart in the source
[4] = target: T1, G4R1/RHAU (G4 Resolvase 1); experiment: EMSA; remark: listed apart in the source
[5] = target: T1, G4R1/RHAU (G4 Resolvase 1); experiment: competition
[6] = target: T1, G4R1/RHAU (G4 Resolvase 1); experiment: competition; remark: listed apart in the source
[7] = target: T1, G4R1/RHAU (G4 Resolvase 1); experiment: EMSA; remark: listed apart in the source

Binder: AAAAAAAAAAGGGTGGGGGGGCGGGGGAGGCCGGGGAAAAAAAAAA (structured_DNA) [Poly A Zic1 DNA 47-mer, unimolecular G4]
- Kd [1]: 5.7 ± 0.2 pM
- binding result [2]: binds
- Kd [3]: 5 pM

Binder: AAAAAAAAAAGGGTGGGGGGGCGGGGGAGGCCGGGGAAAAAAAAAA (ssDNA, guanine N7 methylation (DMS)) [Poly A Zic1 47-mer, dimethyl sulfate treated]
- binding result [4]: no binding

Binder: AAAGTGATGGTGGTGGGGGAAGGATTTTCGAAC (structured_DNA) [Z33 tetramolecular G4-DNA]
- IC50 [5]: 1 competitor:substrate molar ratio

B1: c-Myc DNA 51-mer, unimolecular G4 (structured_DNA)
DNA: GGCCGCTTATGGGGAGGGTGGGGAGGGTGGGGAAGGTGGGGAGGAGACTCA
- Kd [1]: 4.4 ± 0.6 pM
- IC50 [6]: 0.06 competitor:substrate molar ratio

Binder: TTTTTTTTTTGGGTGGGGGGGGCGGGGGAGGCCGGGGTTTTTTTTTT (structured_DNA) [Poly T Zic1 DNA 47-mer, unimolecular G4]
- Kd [1]: 2.4 ± 0.2 pM

Binder: AGAAGAGAGAGAGTGAGAGAGACGAGAGAGGCCGAGAAGAGAGAGAG (ssDNA) [Scrambled Zic1 DNA 47-mer]
- Kd [7]: > 300 pM
